Test results published in patent US20160194402A1 (ADURO BIOTECH HOLDINGS EUROPE B V, published 2016).
Residue numbers refer to the chain shown, from its start.

T1: human CD70 (cellularly expressed hCD70) (human, UniProt P32970 1-193)
T1 construct: whole, on cells; also called CHO-K1.hCD70; CHO-K1.CD70
T1 sequence (looked up): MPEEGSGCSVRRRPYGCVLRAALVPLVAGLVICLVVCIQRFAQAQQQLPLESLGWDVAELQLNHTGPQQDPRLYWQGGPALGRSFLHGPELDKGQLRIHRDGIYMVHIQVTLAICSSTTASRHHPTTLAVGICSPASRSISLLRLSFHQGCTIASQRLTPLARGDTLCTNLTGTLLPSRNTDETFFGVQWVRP

B1: hCD70.39 (antibody, part only; not given: light chain, IgG1, V domains shown, part only)
VH: QGQMQQSGAELVKPGASVKLSCKTSGFTFSSNYISWLKQKPGQSLEWIAWIYAGTGGTNYNQKFTGKAQLTVDTSSSTAYIQFSSLTTEDSAIYYCARLYGYYFDYWGQGTTLTVSS
B2: hCD70.21 (antibody, IgG1, V domains shown)
VH: QVQLQQPGAELVKPGTSVKLSCKASGYNFTSYWINWVKLRPGQGLEWIGDIYPGSGSTNYNEKFKSKATLTVDTSSSTAYMQLSSLASEDSALYYCARGHYGSSYGFDYWGQGTTLTVSS
VL: DIVLTQSPASLAVSLGQRATISCRASKSVSTSGYSYMHWYQQKPGQPPKLLIYLASNLESGVPARFSGSGSGTDFTLNIHPVEEEDAATYYCQHSRELPLTFGAGTKLELK
notes: Mouse monoclonal purified from hybridoma supernatant
B3: hCD70.36 (antibody, IgG1, V domains shown)
VH: EVQLQQSGPELVKTGASVKISCKASGYSFTGYYMHWVKQSHGKSLEWIGYISCYNGATSYNQKFKGKATFTVDTSSSTAYMQFNSLTSEDSAVYYCARGGNWDVEYAMDYWGQGTSVTVSS
VL: B2 VL with L100F, A104S, L110I
notes: as for B2
B4: hCD70.34 (antibody, IgG1, V domains shown)
VH: QVQLKESGPGLVAPSQSLSITCTVSGFSLTSYGVSWVRQPPGKGLEWLGVIWGDGTTNYHSALISRLSISKDNSKSQVFLKLNSLQIDDTATYYCAKPGDYYGSSYWYFDVWGAGTTVTVSS
VL: DVVLTQTPLSLPVNIGDQASISCKSTKSLLNSDGFTYLDWYLQKPGQSPQLLIYFVSNRFSGVPDRFSGSGSGTDFTLKISRVEADDLGVYYCFQSNYLPYTFGGGTKLEIK
notes: as for B2
B5: hCD70.32 (antibody, IgG1, V domains shown)
VH: QVQLQQSGDDLVKPGASVKLSCKASGYTFTSYWINWIKQRPGQGLEWIGRIAPGSGSTYYSKIFKGKATLTVDTSSSTAYIQLSSLSSEDSAVYFCSRGDYGDYWGQGTTLTVSS
VL: DIVMTQSHKFMSTSVGDRVSITCKASQDVGTAVAWYQQKPGESPKLLIYWASTRHTGVPDRLTGSGSGTDFTLTISNVHSEDLADYFCQQYSGYPLTFGDGTKLEL
notes: as for B2
B6: hCD70.23 (antibody, IgG1, V domains shown)
VH: QVQLQQSGPEVVRPGVSVKISCKGSGYTFTDYAMHWVKQSHAKSLEWIGVISTYNGNTNYNQKFKGKATMTVDKSSSTAYMELARLTSEDSAIYYCARDYLDYWGQGTTLTVSS
VL: DIVMTQSPSSLTVTAGEKVTMSCKSSQSLLNSGNQKNYLTWYQQKPGQPPKLLIYWASTRESGVPDRFTGSGSGTDFTLTISSVQAEDLAVYYCQNDYSYPFTFGSGTKLEIK
notes: as for B2

Each molecule was assayed against recombinant hCD70 (CD70(h)-muCD8 fusion Protein, Ancell, cat. no. ANC-537-030) (mouse; human) (assay: cell-based competition ELISA: biotinylated CD70(h)-muCD8 (0.5 ug/ml) binding to CHO-K1.hCD27 cells, Streptavidin-HRP).

| IC50 [nM] | Molecule |
| --- | --- |
| > 330 | B1 |

What follows are molecules tested against recombinant hCD70 (CD70(h)-muCD8 fusion Protein, Ancell, cat. no. ANC-537-030) (mouse; human) (assay: cell-based competition ELISA: biotinylated CD70(h)-muCD8 (0.5 ug/ml) binding to CHO-K1.hCD27 cells, Streptavidin-HRP (reference antibody, Example 3)).

| IC50 [nM] | Molecule |
| --- | --- |
| < 2.6 | 2F2 (CLB70/2) (antibody) |

The molecules below were run against recombinant hCD70 (CD70(h)-muCD8 fusion Protein, Ancell, cat. no. ANC-537-030) (mouse; human) (assay: cell-based competition ELISA: biotinylated CD70(h)-muCD8 (0.5 ug/ml) binding to CHO-K1.CD27 cells, Streptavidin-HRP).

| IC50 [nM] | Molecule |
| --- | --- |
| 0.4 | 2F2 (CLB70/2) (antibody) |
| 1.5 | Ki-24 (antibody) |
| 0.96 | BU69 (antibody) |

These molecules were tested against T1, human CD70 (cellularly expressed hCD70) (assay: cell ELISA on CHO-K1.hCD70 cells, goat anti-mouse IgG-HRP (reference antibody, Example 3)).

| EC50 [nM] | Molecule |
| --- | --- |
| 0.13 | 2F2 (CLB70/2) (antibody) |

The molecules below were run against T2, recombinant hCD70 (CD70(h)-muCD8 fusion Protein, Ancell, cat. no. ANC-537-030) (mouse; human, UniProt P01731 28-196; P32970 39-193, biotin (position not stated; detected with Streptavidin-HRP, bound to streptavidin beads)) (assay: cell-based competition ELISA: biotinylated CD70(h)-muCD8 (0.5 ug/ml) binding to CHO-K1.hCD27 cells, Streptavidin-HRP).
T2 construct: Bought fusion protein; also called CD8-hCD70; biotin-hCD8-hCD70 recombinant protein
T2 sequence (P01731 other isoform, or with tags, fused parts or gaps): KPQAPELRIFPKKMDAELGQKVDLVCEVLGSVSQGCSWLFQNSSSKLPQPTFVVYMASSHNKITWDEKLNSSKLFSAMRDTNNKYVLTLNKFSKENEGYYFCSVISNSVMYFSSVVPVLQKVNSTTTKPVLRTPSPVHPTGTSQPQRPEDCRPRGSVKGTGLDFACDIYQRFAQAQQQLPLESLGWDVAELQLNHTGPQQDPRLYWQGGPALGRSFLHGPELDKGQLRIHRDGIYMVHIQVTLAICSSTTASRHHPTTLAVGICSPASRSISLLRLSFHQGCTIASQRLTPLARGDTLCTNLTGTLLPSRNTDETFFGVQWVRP
Protocol: Blocking properties of the purified antibodies were studied using a cell-based competition assay. The CHO-K1.CD27 assay works along the following principles: CHO-K1.CD27 cells were seeded (40,000 cells/well) in a 96-well plate and incubated overnight at 37° C. After medium removal, 50 μl recombinant hCD70 (CD70(h)-muCD8 fusion Protein (Ancell, cat. no. ANC-537-030) (0.5 μg/ml) and 50 μl of different dilutions of purified anti-hCD70 antibodies were added.
After 1 hour incubation at room temperature, the wells were washed 3 times with PBST. Next, 100 μl/well Streptavidin-HRP conjugate (BD Pharmingen, cat. no. 554066) (1:5,000) was added and cells were incubated for one hour at 37° C. After 6 final washes with PBST TMB Stabilized Chromagen (Invitrogen, cat. no. SB02) (100 μl/well) was added. The reaction was stopped by the addition of 100 μl 0.5 M H₂SO₄. Absorbencies were read at […] and 620 nm. Reference antibody: anti-hCD70, clone 2F2 (Pelicluser). […] Calculated IC₅₀ values of hCD70 antibodies and the reference 2F2 anti-hCD70 antibody, which represent the concentration at which half of the inhibition is observed, are presented in Table 3.

| IC50 [nM] | Molecule |
| --- | --- |
| > 330 | B2 |
| > 330 | B3 |
| 109 | B4 |
| 76 | B5 |
| > 330 | B6 |

Each molecule was assayed against T1, human CD70 (cellularly expressed hCD70) (assay: cell ELISA on CHO-K1.hCD70 cells, goat anti-mouse IgG-HRP).
Protocol: Cell-based ELISA experiments using purified hCD70 antibodies were performed to determine binding activities of hCD70 to cellularly expressed hCD70. In this cell-ELISA, all incubation steps were followed by a wash step with PBST (PBS with 0.01% Tween 20). CHO-K1.hCD70 cells were seeded (40,000 cells/well) in tissue culture plates and incubated overnight at 37° C. The next day, culture medium was removed and cells were incubated for one hour with (dilutions of) purified antibodies at 37° C. Next, cells were washed with PBST and incubated for one hour at 37° C. with 1:1,000 goat-anti-mouse IgG-HRP (Southern Biotechnology, #1030-05). Subsequently, cells were washed 6 times with PBST and anti-hCD70 immunoreactivity was visualized with 100 μl TMB Stabilized Chromagen (Invitrogen, cat. no. SB02). Reactions were stopped with 100 μl 0.5 M H₂SO₄ and absorbances were read at 450 and 620 nm. […] Calculated EC₅₀, representing the concentration at which 50% of the total binding signal is observed are represented in Table 3 using 2F2 anti-hCD70 antibody (Pelicluster) as a reference.

| EC50 [nM] | Molecule |
| --- | --- |
| 0.014 | 2F2 (CLB70/2) (antibody) |
| 0.035 | Ki-24 (antibody) |
| 0.017 | BU69 (antibody) |
| 0.26 | B2 |
| 0.3 | B3 |
| 0.21 | B4 |
| 0.15 | B5 |
| 0.17 | B6 |
| 0.34 | B1 |
